From publication PMC5709234
Where “and” joins values, the source holds several entries; their conditions need not be identical. Equal values may be shown once. Read-outs that look alike come from different tables or passages of the source. One block for each substance: values may come before it.

Assays:
Experiment in all cases: native MS
[1] = target: Alcohol dehydrogenase 1 (S. cerevisiae) (S. cerevisiae) (UniProt P00330)
[2] = target: Alcohol dehydrogenase 1 (S. cerevisiae) (S. cerevisiae) (UniProt P00330); remark: listed apart in the source
[3] = target: Trastuzumab light chain, dissociated from the mAb
[4] = target: Truncated alcohol dehydrogenase 1 (S. cerevisiae) (S. cerevisiae)

Sequence of Truncated alcohol dehydrogenase 1 (S. cerevisiae) (domain or fragment) (P00330 2-348): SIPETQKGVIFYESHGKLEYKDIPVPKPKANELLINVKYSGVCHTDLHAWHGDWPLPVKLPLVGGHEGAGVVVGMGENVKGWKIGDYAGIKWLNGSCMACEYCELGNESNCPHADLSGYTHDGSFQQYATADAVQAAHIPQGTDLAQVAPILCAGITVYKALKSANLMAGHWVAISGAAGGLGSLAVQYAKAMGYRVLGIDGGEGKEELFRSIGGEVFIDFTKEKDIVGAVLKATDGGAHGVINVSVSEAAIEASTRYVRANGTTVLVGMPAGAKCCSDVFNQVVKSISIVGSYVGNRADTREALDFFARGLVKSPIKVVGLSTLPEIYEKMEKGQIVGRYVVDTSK

- stoichiometry N [1]: 2 and 4
- percent detected as homotetramer [2]: 92%
- stoichiometry N [2]: 4
Substance: Alcohol dehydrogenase 1 (S. cerevisiae) (from UniProt P00330 2-348) (enzyme)

- stoichiometry N [3]: 2
Substance: Trastuzumab light chain, dissociated from the mAb (domain or fragment)

- stoichiometry N [4]: 4
Substance: Truncated alcohol dehydrogenase 1 (S. cerevisiae) (domain or fragment)
